Measured values: the DeepSol protein solubility set

Assay: soluble on expression in E. coli; label from the status in PepcDB or PDB records

Soluble on expression in E. coli, not soluble:
MGSDKIHHHHHHMIQADEVAERRLMNIPISGGQHGLFERLFAELRPKLHRYCARMTGSVFDGEDVLQETLAKAIEALPGAGPIANPEGWLFRIAHNAALDFLRRRAREQAYSDEDLDMIVDPANPTIDRQAASAGLHTFMRLPVTQRSSVIMMDVLGYSLQEISAMLDTSIPAVKAALHRGRDRLRQIANEPHDRPLPRLGAAERQLLNAYIDRFNARDFDAVRDMLAEEVRLELVAKTRLNGREEVGTYFGNYSRAQDWHLVPGFVENRPAILVHDLNDPATRPAYFIVLAWHDGRLAAIGDFRHARYVADSADMHAL
MGSDKIHHHHHHMNLATPSQMTAASIETFDATSCAAFSACYPETPHKLVHRLRDHPLLQLDALAALGEELPAHSVEYNRADLPIGLNGGKAPPNGIGIGETIRNIASTGSWAALKNVEQVPAYAALLGELLEGLRPTIEARTGAMLKPQGFVFVTSPDGVTPYHFDPEHNILLQLMGSKVMTMFPAGDSRFAPDETHETYHTGGGRELFWRDELLGHGRQWPLSPGEALYVPVMSPHFVTNGPSPSVSLSITWRSEWSFAEADARAFNGLLRSMGLKPGAPRRWPASNRAKAMCWRLYGKVRGLR
MPKVKTNRVKYPEGWELIEPTLRELDAKMREAETDSHDGKRKCETLWPIFKVSHQRSRYVYDLYYRREEISKELYEFCLDQGYADRSLIAKWKKSGYERLCCLRCIQPRDHNYGTTCVCRVPKHLREEKVVECVHCGCQGCASGD
MGSDKIHHHHHHMMDARRNGLVLLALLLLTQTTISAQTDSMGKDVPIDSVSVATSDSLQTKRGFFKKFLDYFNDANKEKKNKKFDFSVIGGPHYSSDTKFGLGLVAAGLYRTDRNDSILPPSNVSLYGDVSTVGFYLLGVRGNHLFPQEKYRLNYNLYFYSFPSLYWGRGYDNGANSDNESDYKRFQAQVKVDFMFRVAKSFYIGPMAVFDYIDGRDFEKPELWEGMSARTTNTSLGLSLLYDSRDFLTNAYQGYYLRIDQRFSPAFLGNKYAFSSTELTTSYYHPVWKGGVLAGQFHTLLNYGNPPWGLMATLGSSYSMRGYYEGRYRDKCAMDAQIELRQHIWKRNGVAVWAGAGTVFPRFSDFTPKHILPNYGFGYRWEFKKRVNVRLDLGFGKHQTGFIFNINEAF
MCTDHQWINSAIRKIEADYQRSADTHLIKLDLPCVSGVDIYLKDESTHPTGSLKHRLARSLFLYGLCNGWIGPETTIIESSSGSTAVSEAYFARLLGLPFIAVMPKCTARKKIEQIQFYGGKAHLVDRSDQIYAESHRLAKELKGHYMDQFTYAERATDWRGNSNIADSIFSQMQMEQHPVPSWIVMSPGTGGTSATIGRFIRYQQYNTKLCVVDPENSVFYDYYRTRNAELTRDCGSKIEGIGRPRVEPSFIPDVVDEMRAIPDAASVATIYWLEKILGRKAGASTGTNLYGALQLACEMKRRGEQGSIVTLLCDSGERYLDTYYNSEWVKNNIGDLSKYLHKLETFSATGCLD
MAHHHHHHMSRCNVAACFFPQQYGCETECGSESLLRAVLGDNANRVDSVMNHCTPHCVAAAIARCIREGPNFPHHLHVIAGVGRFKEIMIACLIDMIPQPLFSIDVPLQCMMFASEEGSVVCKLFDSESMPSLLSTANDMEQIFLVSLRHERRMVTIVAVEQLSTSLVASMLGSVCSNIWVLLSGLHTTEREMSLLNEAMAIRDAVREFSSAVGAVSTELHVEEESSAHATPPVAVEVVHPSAPSLKGVEDNDTAVVVSSAEAETVSDTQSVARRLEESQCEVNQLRKKLEEAEDTIHRFRAAERRAEEEKKNLSLAESLAATTPVATSERAESLFCEGTGGLDSQNSKGNENWVGERTVVATQRELSAMQAKLSELQRCLVETSEGNLGRVREFQCRELEWQRELRRRTEERDVALQECERLRGATPCHGSQEKVFSRAVETPHAHQEQELDNLLSRIRSITAAHGNAAHSEFPMLFSSQRSAGGAGQPLSPRGDYRRFASLERYRS
EQIVAAYDNSLLYTDHFLVRTIGMLRDMSDYDTAMIYLSDHGESLGEKGLYLHGMPYAIAPVEQTRVPMVIWFSKQFVQSRQIDLNCVHQRARQYADHDNLFSSVLGLMQVKTALYERPHDLFATCEK
MCLVALAWKTHPRWRLLLAGNRDEFHERPTAPLAQWAAPAERVLAGRDLRSGGSWVGLGLDGRAAVVTNVRDPLATASGRSRGHLIADYLSGSADAATYARELAAAGQEFPPFNLLLCDAERCEHLSNHPALARALAPGIHGMSNGPLDAHWPKTTALTHALAAWCDSGSDDLQPLWTALANPATAADADLPHTGVDRATERLLSAAFIRGASYGTRASTIVAVDHHGHGFIHERRFGPDGVFQGETRLDVAGMHLEHHHHHH
DQLYALFDAFFDEDLSQSPEQATSLGLDTGKHADARSRLSDRSTAAWLRDRAEPAERIARLKTIDRKALSGDDAINYDTALFNYEARQGTSRFDFGDGARPFVLTQFYGSYISTPSFLDGRHKIASAADADAYLGRMKAFATVLDQETQRAGADAAKGVIPADFIVDKAIAQLQQFRSLPVEKNVLVASAARRAKAYGDYDAKAAAILTGEIHPALDRQIAALQAMRAKAVHDAGIGRLKDGDAFYAALLKIYTTTNKTPEEVHRLGLEEGAEIQARMDEILKKRGLTQGTVGQRMARLNTMPGQVFANTDEGRAELLAYCTERLAKLQPLLPQWFGVMPKTPVVVRRVPAYTEAGSAGAYYERPALDGSRPGAVYINLRDTAERPRWSLATLMHHEGAPGHHFQLALVAESNLPKLRQNMGFSANTEGWALYAEQVAMEMGIYDDGDDLGLLGMYQARLFRASRCVVDTGIHAKGWSREKAIAYMIETGGDPEVRVSREVERYCANPGQACSYKVGHTVWAALRERTKQRLGSKFDIKRFHDTALLVGPAPLTVLEGVLDRWQ
MKARKRKEQTFHEYFKEWVDLYKVGAIRSITLQKYYVTEQKIQELVPDLKIKDLDRYTYQQLLNSYAVTHEKQTTMDFHHHLKGAILDAVDEGVISQNPTRKIVIKGKTPRPKKAKFLNQFEVQALLKELNLKEDINWDWFILLIIKTGLRFSEALALTPSDFDFSKQKIIINKTWDYKMVTGSFQPTKNESSNRKIQIDWQLAMQFSQLIKMKDPDKPIFVKSRVFNSTINNRLKVLCENANIPTITVHSLRHTHASLLLFAGVSIASVANRLGHSSMTTTQETYLHIIQELENQDNDKIIRHLSMLM
MGSDKIHHHHHHMPLLDVRNLTIELDTPHGRVRALEKVSLTLNAGEIHGLVGESGSGRSLLARAILGIPGPNWTITADRMMWDGNNLMAMSSKERRNLMGSDMAMIFQDPSGSLDPAQTVGSQLMQAMPKNPNAYFWQKRRHARLTAQKWLHKVGIKNPRQVMSSYAWELSEGECQKVMIAMAVANQPRLLIADEPTSSMELSTQAQIFRLLSQLNQLQNVSILLISHELETLAQWCDHLSVLYCGQVMESGPTDEVIKQPYHPYTKALLDNMPDYSGSGGHKAIMPTLPGSAPALQHLPIGCRLGPRCPEAQKKCVNQPNLSHIKDRYFACHFPYHGETHNDDPTA

Soluble on expression in E. coli, soluble:
MSLSELAVTEAEKGQDMIRSAVGEIKITNASLACYSWPRAQPIQNGLHTYVNVNIAITKIETDIGITGYGIGRNNPGENAIRHQFLSTMIGKDPTATAAVWAQLWSPKLYGRRGQETKALSSIDMALWDIKGKIAGMPIWRLLGGYRNRIPTYVAGGYYAKGKGLKDLQQEMANHVERGARGVKMKVGAVDIAEDVERINAVRKALGPDIKLMIDANCAYTYFDAIRLAKRVEEFDIYWFEEPVQPDDYEGFTKLSRATSIPLATGENEYTKHGFRDLIATQAISFLQPDARYMGGVTEFMKVAAMAEAHGLVICPHGDQQAHIQLLGAIPNAHLLEFYPKELNPMFGSVYKHTPDLNEDGTVTIPDVPGMATEPNEKMLERYRVAEGHHHHHH
AHHHHHHGSIKLRDELGTATTDSAQKILLLGSGELGKEIAIEAQRLGVEVVAVDRYANAPAMQVAHRSYVGNMMDKDFLWSVVEREKPDAIIPEIEAINLDALFEFEKEGYFVVPNAKATWIAMHRERLRETLVKEAKVPTSRYMYATTLDELYEACEKIGYPCHTKAIMSSSGKGSYFVRGPEDIPKAWEEAKTKARGSAEKIIVEEHIDFDVEITELAVRHFDENGEIVTTFPKPVGHYQIDGDYHASWQPAEISEKAEREVYRIAKRITDVLGGLGLFGVEMFVKGDKVWANEVSPRPHDTGMVTLASHPPGFSEFGLHLRAVLGLPIPGEWVDGYRLFPMLIPAATHVIKAKVSGYSPRFRGLAKALSVPNATIRLFGKPEAYPGRRLGVVLAWDKDVQEAKKRAEMVAHMIELRTRSSDWHSQDYEKRKHLL
MSAKEKFTSLSPAEFFKRNPELAGFPNPARALYQTVRELIENSLDATDVHGILPNIKITIDLIDDARQIYKVNVVDNGIGIPPQEVPNAFGRVLYSSKYVNRQTRGMYGLGVKAAVLYSQMHQDKPIEIETSPVNSKRIYTFKLKIDINKNEPIIVERGSVENTRGFHGTSVAISIPGDWPKAKSRIYEYIKRTYIITPYAEFIFKDPEGNVTYYPRLTNKIPKPPQEVKPHPYGVDREEIKILINNLKRDYTIKEFLVNEFQSIGDTTADKILELAGLKPNKKVKNLTEEEITRLVETFKKDEDFRSPSADSLSVIGEDLIELGLKKIFNPDFAASITRKPKAYQGHPFIVEAGVAFGGSIPVGEEPIVLRYANKIPLIYDEKSDVIWKVVEELDWKRYGIESDQYQMVVMVHLCSTKIPYKSAGKESIAEVENIEKEIKNALMEVARKLKQYLSEKRKEQEAKKKLLAYLKYIPEVSRSLATFLASGNKELVSKYQNEISEGLFKLISKKLDLINIEEYRKVYRVDSE
VCQILEVDRSTYHYKSRRPGQASLESKIKEICQTRVRYGYRRVHVLLRREGWLINQKKTRRIYRELGLQLRNKTPKRRVRAKLRDDRRDATHPNETWAMDFVHDQLATGNKIRVLTVVDLFSRYSPVLDPRFSYRAENVVQTLEHTWAAVGYPKTIRVDQGSEFISRELDLWAYSNGVTLDFSRPGKPTDNAFIEAFNGRFRAECLNTHWFLTLDDARSKLEDWRRYYNEQRPHGAIGNRPPITLHNRDSDPSSPS
MSLTIKLIAIDIDGTLLNEKNELAQATIDAVQAAKAQGIKVVLCTGRPLTGVQPYLDAMDIDGDDQYAITFNGSVAQTISGKVLTNHSLTYEDYIDLEAWARKVRAHFQIETPDYIYTANKDISAYTIAESYLVRMLIQYREVSETPRDLTISKAMFVDYPQVIEQVKANMPQDFKDRFSVVQSAPYFIEVMNRRASKGGTLSELVDQLGLTADDVMTLGDQGNDLTMIKYAGLGVAMGNAIDEVKEAAQAVTLTNAENGVAAAIRKYALNEGHHHHHH
EVQDVNDSSWKEFVLESEVPVMVDFWAPWCGPCKLIAPVIDELAKEYSGKIAVYKLNTDEAPGIATQYNIRSIPTVLFFKNGERKESIIGAVPKSTLTDSIEKYL
MATLFIADLHLCAEEPAITAGFLRFLAGEARKADALYILGDLFEAWIGDDDPNPLHHQMAAAIKAVSDSGVPCYFIHGNRDFLLGKRFARESGMTLLPEEKVLELYGRRVLIMHGDTLCTDDAGYQAFRAKVHKPWLQTLFLALPLFVRKRIAARMRANSKEANSSKSLAIMDVNQNAVVSAMEKHQVQWLIHGHTHRPAVHELIANQQTAFRVVLGAWHTEGSMVKVTADDVELIHFPF
SMDSSALPDPGFQKITLSSSSEEYQKVWNLFNRTLPFYFVQKIERVQNLALWEVYQWQKGQMQKQNGGKAVDERQLFHGTSAIFVDAICQQNFDWRVCGVHGTSYGKGSYFARDAAYSHHYSKSDTQTHTMFLARVLVGEFVRGNASFVRPPAKEGWSNAFYDSCVNSVSDPSIFVIFEKHQVYPEYVIQYTTSSKPS
